18 sequences from the DeepSol protein solubility set can be followed below.

The data set can be described thus: soluble on expression in E. coli; label from the status in PepcDB or PDB records.
As for “MAHHHHHHMVATITFKLRSSNHVGIIEVPHRVISCREIKEAIAEKLSGSPDEIDIFVSGSSDYLHPNDELPAYTVVEVVRHVGTGRPPPKREREPVGPSNLSSAMSHAAVRAGNKNGDTATPLTEEERLAQLSEAVAVETGIDEVGAWRMRQMRNRSAAMGGGGREVTFRPPPPGYICHNCGKRGHLIQHCPAAKGVRGVKLLSLPTGIPETMLVECTMDDPAAKFVTRDGRLVKRKLDNASFVGIVTTSNADGVKPDFPSEGGNNRNDSPNSEKLETPDAGGDAAAKPQFLCAWDSVIVKNAMKAPCCGALFCETCLNERVEEAISRADASEIPLLCPGCEEPLDVPDVVEATEERKLVEALRSGKRARD”, the “soluble on expression in E. coli” value was “not soluble”.

Regarding “MAHHHHHHMVGIKYRKNFCDKMLRRTQQRAISQYKFGQPSLTRAFGPVPRERQVAQAGKFMSTKLPNGVRVVSHDLDGAHSVVGVYVEAGPKYDPLGCPGLSHVMRYAIQTSNMDSSLFQVDRTMRSTGNAYGHGEICKRYIHWKTEGRRDMWEKPFAMIATGVVAPRFHESDLERFRDTMDNQREELRWQNPREYCVDALETVAFFKEPLASPRMVPPESNDRCNQKVLLDHWAAYFQPGNITVAAVNIPHDALLAAYTSLPYPHSAEAPHHARSRPPTLSHASESAQFYPGRQYIVYEDRAKNMGTVPDMKEEVIAALGAPTFGRDEDVKKYATALVAREVYQASIESVMPAALTTSHGVQSFYRPYSSAGLIGITIRGAPKEIAGFLDAARGCFPIKVKDDEVAAGRARAAMAFTRNHLDMVRDYCDFIATLSVTPQQLMEAIGAVSAGEVDAALRTLSAVPPAVFVTGSTFTFPKVPSLKK”, the “soluble on expression in E. coli” value is “not soluble”.

“MAHHHHHHMYADDLSIIVKGQSREDAIPTANMVLKKLHAWSQENGLAISPSKCEAAWFTLSTHTESDYDREGKRPLVVAGCEIPVMTMGASRTTKLLGMDLDPRLTLNVAASKQCAASSQRISQLRCIAHKEAGPSPHDLRMFVIGYGASKLRYGSELIWAVATDSAKNEMQKTYATLARIVSGVPSTVDPESALLEANMPPLHVLCLRARLSIFENTRACQMDWMRRPPPEPPPRAVFRISPLSRDELYAFVDAYTKEYGITQSSPREERFFRSSIPPWFAASAHRVTIGVELPTDHSITEEQLIREKRRVSEEALALHSHRSWILAKSGGVDVPKSAGVGILLSSLNSSEIIEKASINCGARPCSYRTESRALLLALERLIIPRIQHRHETLLVVADSQSLLAALNKGPLSQTDWTEDQIWQRLLTLTCAGWSVRLQFFTDIVEYMLTSLRISMRRRLWRLDNTRSMESHIYGIRIC”: the “soluble on expression in E. coli” value is given as “not soluble”.

With “MAHHHHHHMYLCWNDTFLTSFALDTLLSKLVAEVCEKRPVSSRQVLELMREALETQKMQQWYYSETVRSFNDAVNSLSRRGFPLQMACPLYFRIPQEDGGVHELFRYGSEIAVTPNNYDHFEHMLKRYQAVVNGELSQEGYYDAVRHLLPISAHCNLLNSSYTPIINFLQECLLNPRSQWAIQSSSVWDQLGVTYAVPFAGRLFAVDPTKPVTALVSFEDANRYVEMASERCRTLSSLLTTGASLNVVRRAAAAAASPPSASSGRAAVKLAPSTIPVASSAATSEEARKWEAFEAIGLRPEVFSDMSPAEIEFWKYILRLRESPSQIHDISFHLEFGPHHMDLKENGRFIPVTRLNLNQFIEAVVAKQDEVHRYINEVALVTPTHSNASRDAGGGGEGSAGPPPPPVAASNTAAAQAMPAPQQDIKIPAQPPPRTIGSEATSPVGHAQSEAHRDNEAHLTLRDVDSTVVRSIMELRSQYQLGRLTKTELNARQLRFCLPCRDGVYNLIPNGRHIQVATGNIGIFLQYVEEEKKRVEALSGGKSEDSAARACSHAPEATTGGTGSLNVIQRDRERVYGAVEAADADAGYWTDKNVLDIWTYECTTACLLKSSMSPEEIVRQTQLQWDTNFLSRKDCPYANASEDGCVILPKDVKTYLRLLRRRLQSIRLAILDAGKCPQEPSEWDVGEWDVVNPSTPPLEFEVPASVHAIPSAPENLTMFSPTHNTGGLLAPSQSLYL”, the “soluble on expression in E. coli” value was “not soluble”.

As for “MAHHHHHHMYLHVMKVACTPDERHCENSVNPSSSSTLPSATTSSSCPVEHGVPDEESRFTRLYEAAVENESALRVGNYTRRLLFDEFCATSDATRQASQPTCRMLRQRHPALRSLSLSVEGMHSAGADRTSATQLPADSTMSAAESLQAYLSPALSAWRCASQEPFASSAQVAAAAPLPTSAVASDVRPRSPLPLHIDESDAPVDEGAHGEGLEALYMDVFDQEGPANNHEVAVNAAYTREREAADRAALLSAQQATMAGCPCGFTARGSTPSADVSLSNASSLLPEEDDISLVLQPVLGGVAQRRGRGIRVHLESEPSVTTSSSMVDASFLQAGRETTTLTCAVCELSGVVGDPHRTCIDAVELQEEDELHPCGTCGALVHSYCACPGTTADTHYCCNPCCPGGGTV”, the “soluble on expression in E. coli” value is on record as “not soluble”.

As to “MAHHHHHHMYQGRSQQPLWTPPPNFSQVETGIYRSAYPTLASVPFLHHIGIKTIVLLSIELLPVPVVRAISEGDVVAGTTSVSDDVHAWKDNECIKWPIRIVSTADLSEWMNEYVCAKDDFAVSSVQRALDFALQPDFQPVLFTCPTGELQTSVIVGCMRRHQGWSLAAVLAECELFVNVTGGVRQSVMNFIEQWDPDEHPVREEDIAKRKRELLLRDPSLSYSVKRHRRTVTHSASDPDSEYDDPLAMGTSRLGQKGTAGNSAGMGLSLSPYKSSGFDRSTLSSTRVGGDELGLSHSSHVVIKLASWYTAAMKRRAAAAEAIVAARAKVRAPSDPLPEPHERYFGVLNPPALDERSTFTKKSIVQDLD”, the “soluble on expression in E. coli” value was “not soluble”.

Consider “MAHHHHHHMYTHTHTHTHTHTCTHMYLSSTLHRVFSPLVASPPQKEVGSKSNARGGKRVWRKGLASWEPQAGTHAHAHAQTDAEGYLQRTRRKPRPPAHASSLSPPLLLGRSRMGYTRERTNRHFFVSRANAFFSRLPISRIQRALAMEAIKKGSMKPWKHTKEQIIGSPITCNFEYNPRPVRLIGTVMDAHTEETSIKGGLKVYARSEEANMMLWIPAGNPKLKYEVTAAKGSFEHYLDERSKWDEAWLTGRARMK”, for which the “soluble on expression in E. coli” value is “soluble”.

As to “MAHHHHHHPPKRAALIQNLRDSYTETSSFAVIEEWAAGTLQEIEGIAKAAVEAHATIRNSTYGRAQAEKSPEQLLGVLQRYQDLCHNVYCQAETIRTVIAIRIPEHKEADNLGVAVQHAVLKVIDELEIKTLGSGEKSGSGGAPTPIGMYALREYLSARSTVEDKLLGSVDAESGKTKGGSQSPSLLLELRQIDADFMLKVELATTHLSTMVRAVINAYLLNWKKLIQPRGGHLDVLYR”, the “soluble on expression in E. coli” value is “soluble”.

With “MAHHHHHHSLTTDLPAAYHIEQRAHAFPWSEKTFASNQGERYLNFQLTQNGKMAAFAITQVVLDEATLFNIAVDPDYQRQGLGRALLEHLIDELEKRGVATLWLEVRASNAAAIALYESLGFNEATIRRNYYPTTDGREDAIIMALPISMEG”, the “soluble on expression in E. coli” value is “not soluble”.

For “MAHHHHHHSSGLEVLFQGPEPKKYAVTDDYQLSKQVLGLGVNGKVLECFHRRTGQKCALKLLYDSPKARQEVDHHWQASGGPHIVCILDVYENMHHGKRCLLIIMECMEGGELFSRIQERGDQAFTEREAAEIMRDIGTAIQFLHSHNIAHRDVKPENLLYTSKEKDAVLKLTDFGFAKETTQNALQTPCYTPYYVAPEVLGPEKYDKSCDMWSLGVIMYILLCGFPPFYSNTGQAISPGMKRRIRLGQYGFPNPEWSEVSEDAKQLIRLLLKTDPTERLTITQFMNHPWINQSMVVPQTPLHTARVLQEDKDHWDEVKEEMTSALATMRVDYDQV”, the “soluble on expression in E. coli” value is “soluble”.

With “MAHHHHHHVREEKLRLRKQIIEHMNSLSKERYTTLSEQIVFSLYEQKEWAEAKTIGITLSMENEVNTYPIIEKAWKEGKRVVVPKCNKETRTMSFRQISNFDQLETVYMNLREPIPALTEEVNADEIDLQIVPGVAYTERGERIGYGGGYYDRYLVHYKGKTLSLAYSFQMVEHIPVEPFDKNVEKIITEKGTMVKNGLV”, the “soluble on expression in E. coli” value was “soluble”.

On to “MAHTITIVGLGNYGIDDLPLGIYKFLKTQDKVYARTLDHPVIESLQDELTFQSFDHVYEAHDQFEDVYNDIVAQLVEAANEKDIVYAVPGHPRVAETTTVKLLALAKDNTDIDVKVLGG”, for which the “soluble on expression in E. coli” value is recorded as “soluble”.

For the sequence “MAHVVILGAGTGGMPAAYEMKEALGSGHEVTLISANDYFQFVPSNPWVGVGWKERDDIAFPIRHYVERKGIHFIAQSAEQIDAEAQNITLADGNTVHYDYLMIATGPKLAFENVPGSDPHEGPVQSICTVDHAERAFAEYQALLREPGPIVIGAMAGASAFGPAYEYAMIVASDLKKRGMRDKIPSFTFITSEPYIGHLGIQGVGDSKGILTKGLKEEGIEAYTNCKVTKVEDNKMYVTQVDEKGETIKEMVLPVKFGMMIPAFKGVPAVAGVEGLCNPGGFVLVDEHQRSKKYANIFAAGIAIAIPPVETTPVPTGAPKTGYMIESMVSAAVHNIKADLEGRKGEQTMGTWNAVCFADMGDRGAAFIALPQLKPRKVDVFAYGRWVHLAKVAFEKYFIRKMKMGVSEPFYEKVLFKMMGITRLKEEDTHRKAS”, the “soluble on expression in E. coli” value is given as “soluble”.

Turning to “MAHYPPSKDQLNELIQEVNQWAITNGLSMYPPKFEENPSNASVSPVTIYPTPIPRKCFDEAVQIQPVFNELYARITQDMAQPDSYLHKTTEALALSDSEFTGKLWSLYLATLKSAQYKKQNFRLGIFRSDYLIDKKKGTEQIKQVEFNTVSVSFAGLSEKVDRLHSYLNRANKYDPKGPIYNDQNMVISDSGYLLSKALAKAVESYKSQQSSSTTSDPIVAFIVQRNERNVFDQKVLELNLLEKFGTKSVRLTFDDVNDKLFIDDKTGKLFIRDTEQEIAVVYYRTGYTTTDYTSEKDWEARLFLEKSFAIKAPDLLTQLSGSKKIQQLLTDEGVLGKYISDAEKKSSLLKTFVKIYPLDDTKLGREGKRLALSEPSKYVLKPQREGGGNNVYKENIPNFLKGIEERHWDAYILMELIEPELNENNIILRDNKSYNEPIISELGIYGCVLFNDEQVLSNEFSGSLLRSKFNTSNEGGVAAGFGCLDSIILY”, the “soluble on expression in E. coli” value was “soluble”.

For the sequence “MAIALSTLVEEADRYLDAARIQDYCPNGLQVEGRPQVRRIVSGVTASQALLDAAVEADADVVLVHHGYFWKGENPCVVGMKQRRLKTLLNNDISLLAYHLPLDLHPEVGNNVQLARQLGFEVEGPLEPGNPRSIVLLGSLAEPMQPADFARHVRDALGREPLLVDAGQPIRRIAWCTGGAQGYIDQAIAAGVDAYLTGEVSEQTVHSARENGISFIAAGHHATERYGVQALGDYLGKRFAIEHLFIDCPNPALEHHHHHH”, the “soluble on expression in E. coli” value is “soluble”.

“MAIERIQLHTHGDDRGLLISLEQQRNVPFEIRRVYYIFGTRQGVHRGQHAHRQLNQLAVALHGSVTLLLDEGQGQGPEEVVLDDPSQGVLLGRMVWRDLHQFSEDCVLMVLADQYYDPGDYILDYDEFLTEARGVSRLEALEHHHHHH”: the “soluble on expression in E. coli” value is listed as “soluble”.

On to “MAIIPKNYARLESGYREKALKIYPWVCGRCSREFVYSNLRELTVHHIDHDHTNNPEDGSNWELLCLYCHDHEHSKYTEADQYGTTVIAGEDAQKDVGEAKYNPFADLKAMMNKKK”, for which the “soluble on expression in E. coli” value is given as “not soluble”.

As to “MAIKDAIEKIVSYFDADEVTDHEDVAKERPVKVQKTEQTPSQQQRKPERPQETVPPRRQHIKSDVQETQVLRSLSLSRSQVNQGSQQMNTTKTTIAIKYPKKYEDAQEIVELLIENECVLIDFQYMLEAQARRCLDFIDGASKVLTGNLQKVGSSMYLLTPINVVVDIEEIGLSHGNQESTFDFDMKRRLEHHHHHH”, the “soluble on expression in E. coli” value was “not soluble”.
